Assay results from patent publication US20150044246A1 (IMMATICS BIOTECHNOLOGIES, published 2015).

B1: ALLNIKVKL derived from keratin 18 (peptide)
peptide: ALLNIKVKL
notes: MHC class I ligand eluted from renal cell carcinoma tissue and identified by mass spectrometry; also called keratin 18 peptide; keratin 18-peptide
B2: YVDPVITSI derived from met proto-oncogene (peptide)
peptide: YVDPVITSI
notes: MHC class I ligand eluted from renal cell carcinoma tissue; also called met-proto-oncogene peptide
B3: SVASTITGV from adipophilin (peptide)
peptide: SVASTITGV
notes: MHC class I ligand eluted from renal cell carcinoma tissue; also called adipophilin peptide; ADFP peptide

Target: T1, HLA-A*0201 (recombinant, refolded with peptide for tetramer production) (human)
T1 construct: Monomers were biotinylated; also called HLA-A2
Experiment: reconstitution of HLA-A*0201 tetramers with peptide

| Binder | binding result |
| --- | --- |
| B1 | binds |
| B2 | binds |
| B3 | binds |
